The values below come from PMC5646241, “Copper Chaperone CupA and Zinc Control CopY Regulation of the Pneumococcal cop Operon”.

Data set [1] concerns the target CopY, repressor of the Streptococcus pneumoniae cop operon (Streptococcus pneumoniae TIGR4). Description: SEC-MALS; WTC-010S5 column, 50 mM Tris-HCl pH 7.5, 100 mM NaCl, 5% glycerol, without zinc (apo CopY), 25°C. For orientation: SEC sorts molecules by how far they enter the pores of the column.
Data set [2] shares this target. In words: SEC-MALS; WTC-010S5 column, 50 mM Tris-HCl pH 7.5, 100 mM NaCl, 5% glycerol, with 100 µM zinc, 25°C.
Data set [3] addresses T1, CopY (copper-responsive cop operon repressor) (Streptococcus pneumoniae TIGR4, UniProt A0ACD7PQP7 1-131). In words: fluorescence polarization; apo, no metal; FP: 50 mM Tris-HCl pH 7.5, 100 mM NaCl, 5% glycerol, Chelex-treated, 10 nM DNA, temperature not stated; EMSA: TBS, 20 ul, 4 C, 50 uM CopY, 50 ng DNA, 6% TBE gel, 0.5x TB running buffer without EDTA. The settings on record: protein: recombinant; tags: pMCSG7 vector construct (tag not given); chain copies: 2; label: FAM on strand 1; blunt. In general terms: Fluorescence polarisation rises when a labelled molecule tumbles more slowly, as on binding a larger partner.

Data set [4] addresses CopY, zinc-bound (Streptococcus pneumoniae TIGR4, UniProt A0ACD7PQP7 1-131). Description: fluorescence polarization; 10 uM Zn2+; FP: 50 mM Tris-HCl pH 7.5, 100 mM NaCl, 5% glycerol, Chelex-treated, 10 nM DNA, temperature not stated; EMSA: TBS, 20 ul, 4 C, 50 uM CopY, 50 ng DNA, 6% TBE gel, 0.5x TB running buffer without EDTA. The note with it: protein: recombinant; tags: pMCSG7 vector construct (tag not given); chain copies: 4; label: FAM on strand 1; blunt.

The target in data set [5] is T1, CopY (copper-responsive cop operon …). Description: fluorescence polarization; apo; described as nonspecific binding, linear; FP: 50 mM Tris-HCl pH 7.5, 100 mM NaCl, 5% glycerol, Chelex-treated, 10 nM DNA, temperature not stated; EMSA: TBS, 20 ul, 4 C, 50 uM CopY, 50 ng DNA, 6% TBE gel, 0.5x TB running buffer without EDTA. The settings on record: protein: recombinant; tags: pMCSG7 vector construct (tag not given); chain copies: 2; label: FAM on strand 1; blunt.

Data set [6] has the same target. In words: EMSA; no metal; 50 uM CopY; FP: 50 mM Tris-HCl pH 7.5, 100 mM NaCl, 5% glycerol, Chelex-treated, 10 nM DNA, temperature not stated; EMSA: TBS, 20 ul, 4 C, 50 uM CopY, 50 ng DNA, 6% TBE gel, 0.5x TB running buffer without EDTA. The note with it: protein: recombinant; tags: pMCSG7 vector construct (tag not given); chain copies: 2; label: 3' biotin on strand 1; blunt. Background: Mobility shift assays separate free from complexed probe on a gel.

What is called stoichiometry N is a count of units in the complex or per binding partner. By Kd is commonly meant a measure of binding affinity in units of concentration.

As for “CopY, repressor of the Streptococcus pneumoniae cop operon (natural protein)”, the stoichiometry N in data set [1] was determined as 2; in data set [2], 4.

B1: pSP_0727 cop promoter, FAM (dsDNA)
DNA 1: TCTATAATTGACAAATGTAGATTTTAAGAGTATACTGATGAGTGTAATTGACAAATG
DNA 2: CATTTGTCAATTACACTCATCAGTATACTCTTAAAATCTACATTTGTCAATTATAGA
Consider B1, for which the Kd came to 4240 ± 780 nM in data set [3] and 520 ± 130 nM in data set [4].

B2: pSP_1541 promoter, FAM (dsDNA)
DNA 1: GCGAACCTCACTTACCCCTTGCAAAGTCTTGGGGTCATTAGA
DNA 2: TCTAATGACCCCAAGACTTTGCAAGGGGTAAGTGAGGTTCGC
With B2, in data set [5], the binding result is reported as “no binding”.

B3: pSP_1541 promoter, biotinylated (dsDNA)
DNA 1: GCGAACCTCACTTACCCCTTGCAAAGTCTTGGGGTCATTAGA
DNA 2: TCTAATGACCCCAAGACTTTGCAAGGGGTAAGTGAGGTTCGC
Consider B3, for which, in data set [6], the binding result is “no binding”.
